Experimental data taken from US20260085127A1 (BRIGHTPATH BIOTHERAPEUTICS, published 2026).
“And” between values parts separate entries of the source, which are not always exact repeats. Equal entries are not always repeated. Where two headings read alike, the source gives them in different places.

Columns and labels:
[1] = target: T1, biotinylated human TIM-3-Fc antigen (in-house product, SEQ ID No: 118) (human, biotinylated); experiment: competition ELISA: human Galectin-9 coated, biotinylated human TIM-3-Fc pre-mixed with the antibody dilution series, Streptavidin-HRP, A450; blocked ligand: human Galectin-9
[2] = target: T2, human TIM-3 (Accession No. JX049979.1) stably expressed on cells (human, UniProt Q8TDQ0 22-301); experiment: flow cytometry, Jurkat/TIM-3 cells, KD from MFI
T2 construct: whole, on cells; On Jurkat or 293T cells; also called Jurkat/TIM-3; 293T/TIM-3

[3] = target: T1, biotinylated human TIM-3-Fc antigen …; experiment: flow cytometry, inhibition of biotinylated TIM-3-Fc binding to phosphatidylserine on apoptotic Jurkat cells
[4] = target: T1, biotinylated human TIM-3-Fc antigen …; experiment: as above; remark: listed apart in the source
[5] = target: T2, human TIM-3 (Accession No. JX049979.1) …; experiment: flow cytometry, 293T/TIM-3 cells, KD from MFI
[6] = target: T1, biotinylated human TIM-3-Fc antigen …; experiment: competition ELISA: human Galectin-9 coated, biotinylated human TIM-3-Fc pre-mixed with the antibody dilution series, Streptavidin-HRP, A450; blocked ligand: human Galectin-9; remark: listed apart in the source
[7] = target: T2, human TIM-3 (Accession No. JX049979.1) …; experiment: flow cytometry, Jurkat/TIM-3 + CD39 cells, KD from MFI
[8] = target: T3, human CD39 (Accession No. NM_001776.6) expressed on cells (human, UniProt P49961 1-510); experiment: flow cytometry on a mix of Jurkat, Jurkat/TIM-3, Jurkat/CD39 and Jurkat/TIM-3+CD39 cells in one well, antibody at 0.1 nM, BV421-anti-hIgG, MFI of BV421 per cell group
T3 construct: whole, on cells; On Jurkat, 293T or SK-MEL28 cells; also called Jurkat/CD39; 293T/CD39
T3 sequence (looked up): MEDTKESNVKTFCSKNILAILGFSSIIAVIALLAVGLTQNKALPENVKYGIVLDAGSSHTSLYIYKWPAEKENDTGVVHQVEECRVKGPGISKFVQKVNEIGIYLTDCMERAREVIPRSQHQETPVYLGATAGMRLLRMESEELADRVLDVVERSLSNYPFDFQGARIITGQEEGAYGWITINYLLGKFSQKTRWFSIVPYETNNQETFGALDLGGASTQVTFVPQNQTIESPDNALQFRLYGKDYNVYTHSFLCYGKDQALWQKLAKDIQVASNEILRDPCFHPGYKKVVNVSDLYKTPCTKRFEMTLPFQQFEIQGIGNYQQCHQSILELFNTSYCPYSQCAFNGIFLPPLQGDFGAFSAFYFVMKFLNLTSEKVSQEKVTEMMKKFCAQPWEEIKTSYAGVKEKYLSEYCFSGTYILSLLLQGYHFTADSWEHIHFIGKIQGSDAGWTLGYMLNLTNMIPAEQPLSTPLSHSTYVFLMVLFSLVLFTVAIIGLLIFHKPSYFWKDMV

[9] = target: T1, biotinylated human TIM-3-Fc antigen …; experiment: competition ELISA: human Galectin-9 coated, biotinylated human TIM-3-Fc pre-mixed with the antibody dilution series, Streptavidin-HRP, A450; blocked ligand: human Galectin-9; remark: listed apart in the source
[10] = target: T2, human TIM-3 (Accession No. JX049979.1) …; experiment: flow cytometry, 293T/TIM-3 + CD39 cells, KD from MFI
[11] = target: T4, recombinant human CD39 (in-house product, 38 to 478 aa of Accession No. NM_001776.6) (human, UniProt P49961 38-478); experiment: SPR Biacore8K, antibody captured on anti-human IgG, antigen as analyte
T4 construct: also called rhCD39; human CD39-ECD; not shown: Myc and His tags at the C-terminus are named only for the PE-lab
T4 sequence (looked up): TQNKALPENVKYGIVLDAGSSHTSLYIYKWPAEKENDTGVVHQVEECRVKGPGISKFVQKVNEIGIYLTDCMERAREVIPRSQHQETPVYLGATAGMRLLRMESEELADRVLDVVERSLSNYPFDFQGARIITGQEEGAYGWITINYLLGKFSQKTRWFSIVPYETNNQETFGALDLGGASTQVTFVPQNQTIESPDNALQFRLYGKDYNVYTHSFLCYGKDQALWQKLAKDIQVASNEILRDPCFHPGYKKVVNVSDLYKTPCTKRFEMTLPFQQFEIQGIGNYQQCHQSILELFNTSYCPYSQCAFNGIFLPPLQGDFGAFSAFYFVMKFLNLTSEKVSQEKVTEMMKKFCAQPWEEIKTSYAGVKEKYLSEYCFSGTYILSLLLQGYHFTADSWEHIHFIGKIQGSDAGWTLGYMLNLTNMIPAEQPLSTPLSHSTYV

[12] = target: T3, human CD39 (Accession No. NM_001776.6) …; experiment: flow cytometry, 293T/CD39 cells, KD from MFI
[13] = target: T2, human TIM-3 (Accession No. JX049979.1) …; experiment: flow cytometry, 293T/TIM-3 cells, KD from MFI; remark: listed apart in the source
[14] = target: T3, human CD39 (Accession No. NM_001776.6) …; experiment: flow cytometry on a mix of Jurkat, Jurkat/TIM-3, Jurkat/CD39 and Jurkat/TIM-3+CD39 cells in one well, antibody at 1 nM, BV421-anti-hIgG, MFI of BV421 per cell group
[15] = target: T1, biotinylated human TIM-3-Fc antigen …; experiment: flow cytometry, inhibition of biotinylated TIM-3-Fc binding to phosphatidylserine on apoptotic Jurkat cells; remark: listed apart in the source
[16] = target: T2, human TIM-3 (Accession No. JX049979.1) …; experiment: flow cytometry on a mix of Jurkat, Jurkat/TIM-3, Jurkat/CD39 and Jurkat/TIM-3+CD39 cells in one well, antibody at 1 nM, BV421-anti-hIgG, MFI of BV421 per cell group
[17] = target: T3, human CD39 (Accession No. NM_001776.6) …; experiment: flow cytometry, 293T/CD39 cells, KD from MFI; remark: listed apart in the source
[18] = target: T3, human CD39 (Accession No. NM_001776.6) …; experiment: flow cytometry, 293T/TIM-3 + CD39 cells, KD from MFI

B1: Hu003_13_F20_sc (antibody)
scFv: QVQLQESGGGLVKPGGSLKLSCAASGFTFSSYYMSWVRQTPDKRLEWVATISNSGGSTYYPDSVKDRFTISRDNAKNTLYLQMSSLKSEDTAMYYCARDPYYTNYVPMDYWGQGTMVTVSSGGGGSGGGGSGGGGSGGGGSDIVMTQSPSFLSASVGDRVTITCKASQYVDTYVAWYQQRPGKAPKPLIYSASTRHTGVPSRFSGSGSGTEFTLTISSLQPEDFATYFCAQYSSSPLTFGGGTKLELK
notes: scFv-Fc homodimer, anti-TIM-3; also called scFv-Fc homodimeric antibody of anti-TIM-3_scFv antibody (humanized) Hu003_13_F20; not shown: GGGG linker and Fc-LALA (IgG1 Fc with L234A and L235A)
[1]
  IC50 (read off the curve): ~0.5 nM and ~1 nM
[2]
  Kd: 0.274 nM
[3]
  IC50: 8.56 nM and 8.62 nM
[4]
  IC50: 16.7 nM and 6.66 nM and 8.42 nM
[5]
  Kd: 2.72 nM
[6]
  IC50 (read off the curve): ~0.5 nM and ~0.3 nM
[7]
  Kd: 0.339 nM
[8]
  binding result: no binding (tested: 0.1 nM)
[9]
  IC50 (read off the curve): ~1 nM
[10]
  Kd: 3.86 nM

B2: HuP4_IB_Hu003 (bispecific antibody)
chain 1: QVQLLESGPELVKPSATLSITCTVSGFSLTNYGVHWIRQAPGKGLEWLGVILRRGSTDYNAAFMSRFTISKDNSKNQVYFKLRSVTAEDTAVVAGDYFDYWGQGTMVTVSSGGGGSGGGGSGGGGSGGGGSDIQMTQSHSTLSLSVGDRVTITCKASQNVGTNVAWYQQKPGQPPKALIYSASYRYSGVPSRFSGSGSGTDFTLTISSVQAEDVAVYYCQQYNSYPLTFGPGTKLEIK
chain 2: QVQLQESGGGLVKPGGSLKLSCAASGFTFSSYYMSWVRQTPDKRLEWVATISNSGGSTYYPDSVKDRFTISRDNAKNTLYLQMSSLKSEDTAMYYCARDPYYTNYVPMDYWGQGTMVTVSSGGGGSGGGGSGGGGSGGGGSDIVMTQSPSFLSASVGDRVTITCKASQYVDTYVAWYQQRPGKAPKPLIYSASTRHTGVPSRFSGSGSGTEFTLTISSLQPEDFATYFCAQYSSSPLTFGGGTKLELK
[3]
  IC50: 16.5 nM
[11]
  Kd: 0.334 nM
[12]
  Kd: 11.4 nM
[6]
  IC50 (read off the curve): ~3 nM
[13]
  Kd: 8.66 nM

B3: Hu003_13_F20_LA (antibody, V domains shown)
VH: QVQLQESGGGLVKPGGSLKLSCAASGFTFSSYYMSWVRQTPDKRLEWVATISNSGGSTYYPDSVKDRFTISRDNAKNTLYLQMSSLKSEDTAMYYCARDPYYTNYVPMDYWGQGTMVTVSS
VL: DIVMTQSPSFLSASVGDRVTITCKASQYVDTYVAWYQQRPGKAPKPLIYSASTRHTGVPSRFSGSGSGTEFTLTISSLQPEDFATYFCAQYSSSPLTFGGGTKLELK
notes: IgG1LALA homodimeric antibody (IgG1 with L234A and L235A); also called Hu003_LA; Hu003-LA
[14]
  binding result: no binding (tested: 1 nM)
[15]
  IC50: 8.93 nM and 7.11 nM and 8.51 nM and 12.3 nM

B4: 6-3hIG_LA (antibody, V domains shown)
VH: QVQLVQSGAELVKPGASVKLSCKASGFSIKDTYVHWVKQAPGKGLEWIGKIDPANVNTKFDPKFQGRVTITADTSTNTAYLQLSSLRSEDTAVYYCALYGYDDDAYYFDYWGQGTLVTVSS
VL: EIVLTQSPASLSVSPGERATISCRASESVDNYGISFMNWFQQKPGQAPKLLIYAASNQGSGVPARFSGSGSGTDFTLTISSLEPEDFAVYYCQQSKEVPYTFGQGTKLEIK
notes: IgG1LALA homodimeric antibody; also called IgG1LALA homodimeric antibody of anti-CD39 antibody (humanized) 6-3hIG
[11]
  Kd: 0.629 nM
  koff: 0.000193 s⁻¹
  kon: 307000 M⁻¹ s⁻¹
[16]
  binding result: no binding (tested: 1 nM)
[17]
  Kd: 7.04 nM
[18]
  Kd: 16.8 nM
